Results from publication PMC4031084, “The Phytochrome B/Phytochrome C Heterodimer Is Necessary for Phytochrome C-Mediated Responses in Rice Seedlings” (PLoS ONE, 2014).

Assays:
[1] = molecular target: T1, recombinant rice phyA (Oryza sativa, UniProt Q10DU0); assay: R/FR absorbance difference spectroscopy of the purified holoprotein; type: binding; conditions: covalent; chromophore assembled in E. coli
T1 construct: full length; phytochromobilin-producing E. coli Rosetta 2; homodimer on SEC
T1 sequence (Q10DU0 1-1128): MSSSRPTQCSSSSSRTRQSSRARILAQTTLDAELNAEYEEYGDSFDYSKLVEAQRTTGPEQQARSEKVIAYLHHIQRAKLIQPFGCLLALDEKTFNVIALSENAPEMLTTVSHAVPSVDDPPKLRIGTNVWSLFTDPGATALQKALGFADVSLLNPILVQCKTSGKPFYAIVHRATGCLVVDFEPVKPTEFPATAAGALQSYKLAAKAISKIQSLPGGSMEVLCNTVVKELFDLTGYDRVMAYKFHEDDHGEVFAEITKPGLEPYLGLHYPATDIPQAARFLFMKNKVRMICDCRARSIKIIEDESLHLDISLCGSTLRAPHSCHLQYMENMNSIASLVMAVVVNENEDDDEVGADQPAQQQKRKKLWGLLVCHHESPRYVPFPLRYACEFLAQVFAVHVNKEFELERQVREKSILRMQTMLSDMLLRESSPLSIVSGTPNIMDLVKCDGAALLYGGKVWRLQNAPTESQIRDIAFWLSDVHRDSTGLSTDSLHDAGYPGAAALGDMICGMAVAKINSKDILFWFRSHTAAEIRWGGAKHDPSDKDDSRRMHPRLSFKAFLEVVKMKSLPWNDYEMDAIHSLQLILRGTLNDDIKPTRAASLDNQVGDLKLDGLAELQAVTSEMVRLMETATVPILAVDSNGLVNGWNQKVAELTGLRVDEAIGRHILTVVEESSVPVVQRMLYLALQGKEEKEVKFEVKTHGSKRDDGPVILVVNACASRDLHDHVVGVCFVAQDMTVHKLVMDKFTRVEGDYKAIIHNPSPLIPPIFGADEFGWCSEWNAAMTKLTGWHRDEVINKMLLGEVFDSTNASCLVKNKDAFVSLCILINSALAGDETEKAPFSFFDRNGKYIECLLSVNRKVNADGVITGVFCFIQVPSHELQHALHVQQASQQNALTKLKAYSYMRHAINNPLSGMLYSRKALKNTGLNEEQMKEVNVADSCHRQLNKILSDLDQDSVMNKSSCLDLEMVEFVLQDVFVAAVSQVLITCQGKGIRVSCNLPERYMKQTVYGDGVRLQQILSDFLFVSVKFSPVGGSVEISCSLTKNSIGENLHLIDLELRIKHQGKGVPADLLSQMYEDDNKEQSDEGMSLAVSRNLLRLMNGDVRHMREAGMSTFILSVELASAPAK

[2] = molecular target: T2, recombinant rice phyC (Oryza sativa, UniProt Q10CQ8); assay: as above; type: binding; conditions: covalent; chromophore assembled in E. coli
T2 construct: full length; phytochromobilin-producing E. coli Rosetta 2; monomer on SEC
T2 sequence (Q10CQ8 1-1137): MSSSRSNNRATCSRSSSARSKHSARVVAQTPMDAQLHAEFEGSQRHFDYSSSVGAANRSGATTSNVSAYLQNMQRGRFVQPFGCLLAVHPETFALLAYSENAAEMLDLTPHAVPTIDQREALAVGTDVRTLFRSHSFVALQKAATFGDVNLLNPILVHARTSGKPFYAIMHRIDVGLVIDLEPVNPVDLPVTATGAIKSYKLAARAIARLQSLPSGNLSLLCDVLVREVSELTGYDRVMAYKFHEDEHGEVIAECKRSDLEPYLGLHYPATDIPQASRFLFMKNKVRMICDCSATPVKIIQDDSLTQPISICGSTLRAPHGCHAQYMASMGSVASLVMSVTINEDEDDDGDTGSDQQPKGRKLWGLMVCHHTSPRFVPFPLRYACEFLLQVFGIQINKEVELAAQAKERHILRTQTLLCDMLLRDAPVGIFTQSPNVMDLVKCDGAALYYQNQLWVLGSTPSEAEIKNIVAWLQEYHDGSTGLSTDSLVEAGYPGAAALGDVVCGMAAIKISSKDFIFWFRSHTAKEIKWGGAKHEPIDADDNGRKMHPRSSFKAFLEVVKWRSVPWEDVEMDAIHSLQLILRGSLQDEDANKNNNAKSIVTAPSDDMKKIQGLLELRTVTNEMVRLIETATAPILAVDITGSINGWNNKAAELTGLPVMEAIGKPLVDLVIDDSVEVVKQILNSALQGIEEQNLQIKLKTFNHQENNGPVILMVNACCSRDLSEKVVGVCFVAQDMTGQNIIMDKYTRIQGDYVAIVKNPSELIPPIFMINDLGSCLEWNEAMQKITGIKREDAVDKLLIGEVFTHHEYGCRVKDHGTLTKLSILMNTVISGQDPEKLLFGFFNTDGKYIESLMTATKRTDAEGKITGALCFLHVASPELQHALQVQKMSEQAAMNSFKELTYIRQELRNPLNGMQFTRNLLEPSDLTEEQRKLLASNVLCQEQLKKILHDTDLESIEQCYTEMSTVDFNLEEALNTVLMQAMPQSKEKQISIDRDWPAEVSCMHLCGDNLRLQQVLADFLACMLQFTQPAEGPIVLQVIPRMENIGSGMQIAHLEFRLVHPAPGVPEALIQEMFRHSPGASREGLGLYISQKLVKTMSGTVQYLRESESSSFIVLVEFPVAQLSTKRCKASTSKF

[3] = molecular target: the molecule itself; assay: SEC; protein extracts (1 mg total soluble protein) of etiolated seedlings of WT and phytochrome single and double mutants on Superdex 200 HR 10/30; 50 mM Na-phosphate pH 7.0, 150 mM NaCl, 4 C; fractions immunoblotted with anti-PHYA, anti-PHYB, anti-PHYC; column calibrated with molecular weight standards
[4] = molecular target: the molecule itself; assay: SEC; recombinant phyA or phyC from E. coli fractionated on the same column; fractions #17-#24 immunoblotted with anti-His tag or anti-phytochrome antibodies

## C=CC1=C(C)C(=CC2=NC(=Cc3[nH]c(C=C4NC(=O)C(C)C4=CC)c(C)c3CCC(=O)O)C(CCC(=O)O)=C2C)NC1=O (centres unmarked) [phytochromobilin]
[1]
  R/FR absorbance difference spectroscopy of the purified holoprotein: recombinant phyA was also expressed using the same experimental procedure
[2]
  R/FR absorbance difference spectroscopy of the purified holoprotein: Recombinant phyC with phytochromobilins as a chromophore was expressed in E. coli

B1: rice phytochrome A (phyA), native (natural protein, UniProt Q10DU0 1-1128, looked up)
chain: T1 sequence (Q10DU0 1-1128)
notes: phytochrome A of rice (Oryza sativa L. cv. Nipponbare), native protein in seedling extracts; source: endogenous, soluble protein extract of etiolated rice seedlings
[3]
  stoichiometry N: 2

B2: recombinant rice phyA with phytochromobilin (natural protein, UniProt Q10DU0 1-1128, looked up)
chain: T1 sequence (Q10DU0 1-1128)
modifications: phytochromobilin as chromophore
notes: full length rice phytochrome A; also called recombinant phyA; source: E. coli Rosetta 2 cells expressing phytochromobilin, purified; not shown: His6, C-terminal, kept
[4]
  stoichiometry N: 2

B3: rice phytochrome B (phyB), native (natural protein, UniProt Q10MG9 1-1171, looked up)
chain: MASGSRATPTRSPSSARPAAPRHQHHHSQSSGGSTSRAGGGGGGGGGGGGGAAAAESVSKAVAQYTLDARLHAVFEQSGASGRSFDYTQSLRASPTPSSEQQIAAYLSRIQRGGHIQPFGCTLAVADDSSFRLLAYSENTADLLDLSPHHSVPSLDSSAVPPPVSLGADARLLFAPSSAVLLERAFAAREISLLNPLWIHSRVSSKPFYAILHRIDVGVVIDLEPARTEDPALSIAGAVQSQKLAVRAISRLQALPGGDVKLLCDTVVEYVRELTGYDRVMVYRFHEDEHGEVVAESRRNNLEPYIGLHYPATDIPQASRFLFRQNRVRMIADCHAAPVRVIQDPALTQPLCLVGSTLRSPHGCHAQYMANMGSIASLVMAVIISSGGDDDHNISRGSIPSAMKLWGLVVCHHTSPRCIPFPLRYACEFLMQAFGLQLNMELQLAHQLSEKHILRTQTLLCDMLLRDSPTGIVTQSPSIMDLVKCDGAALYYHGKYYPLGVTPTEVQIKDIIEWLTMCHGDSTGLSTDSLADAGYPGAAALGDAVSGMAVAYITPSDYLFWFRSHTAKEIKWGGAKHHPEDKDDGQRMHPRSSFKAFLEVVKSRSLPWENAEMDAIHSLQLILRDSFRDSAEGTSNSKAIVNGQVQLGELELRGIDELSSVAREMVRLIETATVPIFAVDTDGCINGWNAKVAELTGLSVEEAMGKSLVNDLIFKESEETVNKLLSRALRGDEDKNVEIKLKTFGPEQSKGPIFVIVNACSSRDYTKNIVGVCFVGQDVTGQKVVMDKFINIQGDYKAIVHNPNPLIPPIFASDENTCCSEWNTAMEKLTGWSRGEVVGKLLVGEVFGNCCRLKGPDALTKFMIVLHNAIGGQDCEKFPFSFFDKNGKYVQALLTANTRSRMDGEAIGAFCFLQIASPELQQAFEIQRHHEKKCYARMKELAYIYQEIKNPLNGIRFTNSLLEMTDLKDDQRQFLETSTACEKQMSKIVKDASLQSIEDGSLVLEKGEFSLGSVMNAVVSQVMIQLRERDLQLIRDIPDEIKEASAYGDQYRIQQVLCDFLLSMVRFAPAENGWVEIQVRPNIKQNSDGTDTMLFLFRFACPGEGLPPEIVQDMFSNSRWTTQEGIGLSICRKILKLMGGEVQYIRESERSFFHIVLELPQPQQAASRGTS
notes: phytochrome B of rice (Oryza sativa L. cv. Nipponbare), native protein in seedling extracts; Native photoreceptor; source: endogenous, soluble protein extract of rice seedlings (etiolated or white-light-grown)
[3]
  stoichiometry N: 2
